Data: US20180244758A1 (MAPP BIOPHARMACEUTICAL, published 2018)

Tests used:
[1] = molecular target: T1, TAFV GP on VSV pseudotype particles (Tai Forest virus (TAFV), UniProt Q66810 33-676); experiment: cell-based or functional assay
T1 sequence: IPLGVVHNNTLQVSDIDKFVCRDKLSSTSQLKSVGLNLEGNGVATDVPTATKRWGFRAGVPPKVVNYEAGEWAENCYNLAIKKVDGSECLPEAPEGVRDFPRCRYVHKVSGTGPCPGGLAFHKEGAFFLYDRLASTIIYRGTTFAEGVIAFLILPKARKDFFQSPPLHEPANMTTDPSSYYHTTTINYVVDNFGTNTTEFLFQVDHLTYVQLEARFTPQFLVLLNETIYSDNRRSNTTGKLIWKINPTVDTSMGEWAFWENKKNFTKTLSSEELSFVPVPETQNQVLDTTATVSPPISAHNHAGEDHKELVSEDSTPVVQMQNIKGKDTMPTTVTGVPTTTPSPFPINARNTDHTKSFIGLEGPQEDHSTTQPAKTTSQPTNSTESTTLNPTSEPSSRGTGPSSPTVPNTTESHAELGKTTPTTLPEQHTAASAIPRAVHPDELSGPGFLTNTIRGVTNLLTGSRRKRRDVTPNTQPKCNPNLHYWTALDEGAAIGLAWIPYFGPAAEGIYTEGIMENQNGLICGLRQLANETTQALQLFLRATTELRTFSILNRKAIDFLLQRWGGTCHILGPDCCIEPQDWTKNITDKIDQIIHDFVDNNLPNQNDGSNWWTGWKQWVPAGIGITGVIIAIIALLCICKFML

RESTV GP = molecular target: T2, RESTV GP (Reston virus (RESTV), UniProt Q66799 34-638); experiment: ELISA, GP antigen coated
T2 sequence: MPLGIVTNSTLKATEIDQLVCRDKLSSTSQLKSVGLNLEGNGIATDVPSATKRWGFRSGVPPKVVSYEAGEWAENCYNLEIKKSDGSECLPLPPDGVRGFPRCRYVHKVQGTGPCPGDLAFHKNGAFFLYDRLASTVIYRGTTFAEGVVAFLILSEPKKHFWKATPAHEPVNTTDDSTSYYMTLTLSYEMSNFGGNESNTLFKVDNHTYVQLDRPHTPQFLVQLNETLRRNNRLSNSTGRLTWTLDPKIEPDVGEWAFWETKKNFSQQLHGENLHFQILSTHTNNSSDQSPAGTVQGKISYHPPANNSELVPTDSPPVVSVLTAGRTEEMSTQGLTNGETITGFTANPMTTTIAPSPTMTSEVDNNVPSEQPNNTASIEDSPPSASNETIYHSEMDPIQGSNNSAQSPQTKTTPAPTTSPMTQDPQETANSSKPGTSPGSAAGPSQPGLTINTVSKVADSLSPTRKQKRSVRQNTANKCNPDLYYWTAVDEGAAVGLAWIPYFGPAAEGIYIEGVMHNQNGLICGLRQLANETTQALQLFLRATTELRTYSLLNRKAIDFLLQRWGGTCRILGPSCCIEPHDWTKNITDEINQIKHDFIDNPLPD

B1: mAb PE-87 (antibody, V domains shown)
VH: QVQLVQSGVTLVQPGGSLRVSCAASGFTFSSYAMSWVRQAPGKGLEWVSAISGLGGSTYYADSVKGRFTISRDNSKNTLYLQMNSLRAEDTAVYYCAKDHRVWAAGYHFDYWGQGALVTVSS
VL: DIVLTQSPSTLSASVGDRVTITCRASQSISSWLAWYQQKPGEAPKLLISDASSLESGVPSRFSGSGSGTEFTLTISSLQPDDFATYYCQQYYSSPTFGGGTKVEIK
[1]
  IC50 (nM), neutralization of rVSV-GP: 0.9 nM

B2: mAb PE-16 (antibody, V domains shown)
VH: QVQLVQSGAEVTKPGASVKVSCKASGYTFTTYYMHWVRQAPGQGLEWVGIINPSGGITRYAQKFQGRVTLTRDTSTTTVYMELSSLRSEDTAVYYCARDRYPVLFATDYGMDVWGQGTTVTVSS
VL: DIVMTQSPATLSLSPGERATLSCRASQSVSGYLAWYQQKPGQAPRLLIYDASNRATGIPARFSGSGSGTDFTLTISSLEPEDFAVYYCQQRSIWPPGVTFGGGTKVEIK
RESTV GP
  binding result: no binding (tested: 0.2 µg/ml)
